Source: the supplement of paper PMC10567573

B1: KCNAB2 (parent)
chain: YVDVVFANRPDPNTPMEETVRAMT

Variants of: B1
Assay: protein stability index of a GFP-peptide fusion (GPS, HEK-293T) (PSI 1-6); higher = more stable
Settings: c terminus: a fixed tail appended
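Note: lentivirally expressed fusions sorted by FACS into six bins by GFP to DsRed ratio, PSI derived from sequencing read proportions per bin multiplied by bin number.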

Variant | protein stability index
YVDVGFANRPDPNTPMEETVRAMT [V5G] | 2.49
YVDVPFANRPDPNTPMEETVRAMT [V5P] | 2.01
YVDVHFANRPDPNTPMEETVRAMT [V5H] | 2.09
YVDVIFANRPDPNTPMEETVRAMT [V5I] | 2.09
YVDVEFANRPDPNTPMEETVRAMT [V5E] | 2.5
YVDVMFANRPDPNTPMEETVRAMT [V5M] | 3.01
YVDVWFANRPDPNTPMEETVRAMT [V5W] | 1.59
YVDVDFANRPDPNTPMEETVRAMT [V5D] | 2.13
YVDVQFANRPDPNTPMEETVRAMT [V5Q] | 1.65
YVDVLFANRPDPNTPMEETVRAMT [V5L] | 2.2
YVDVNFANRPDPNTPMEETVRAMT [V5N] | 2.06
YVDVKFANRPDPNTPMEETVRAMT [V5K] | 1.82
YVDVCFANRPDPNTPMEETVRAMT [V5C] | 1.9
YVDVRFANRPDPNTPMEETVRAMT [V5R] | 2.45
YVDVYFANRPDPNTPMEETVRAMT [V5Y] | 2.03
YVDVSFANRPDPNTPMEETVRAMT [V5S] | 1.93
YVDVFFANRPDPNTPMEETVRAMT [V5F] | 3.07
YVDVAFANRPDPNTPMEETVRAMT [V5A] | 2.29
YVDVTFANRPDPNTPMEETVRAMT [V5T] | 2.12
YVDVVFAFRPDPNTPMEETVRAMT [N8F] | 2.85
YVDVVFAARPDPNTPMEETVRAMT [N8A] | 2.69
YVDVVFAVRPDPNTPMEETVRAMT [N8V] | 1.83
YVDVVFARRPDPNTPMEETVRAMT [N8R] | 2.3
YVDVVFAIRPDPNTPMEETVRAMT [N8I] | 2.35

Variant | protein stability index
YVDVVFADRPDPNTPMEETVRAMT [N8D] | 1.79
YVDVVFAMRPDPNTPMEETVRAMT [N8M] | 3.09
YVDVVFAKRPDPNTPMEETVRAMT [N8K] | 1.7
YVDVVFASRPDPNTPMEETVRAMT [N8S] | 2.33
YVDVVFAHRPDPNTPMEETVRAMT [N8H] | 1.76
YVDVVFAERPDPNTPMEETVRAMT [N8E] | 2.14
YVDVVFAGRPDPNTPMEETVRAMT [N8G] | 1.83
YVDVVFALRPDPNTPMEETVRAMT [N8L] | 2.61
YVDVVFATRPDPNTPMEETVRAMT [N8T] | 2.68
YVDVVFACRPDPNTPMEETVRAMT [N8C] | 2.94
YVDVVFAPRPDPNTPMEETVRAMT [N8P] | 1.82
YVDVVFAQRPDPNTPMEETVRAMT [N8Q] | 1.9
YVYVVFANRPDPNTPMEETVRAMT [D3Y] | 2.34
YVDRVFANRPDPNTPMEETVRAMT [V4R] | 2.52
YVDAVFANRPDPNTPMEETVRAMT [V4A] | 1.98
YVDFVFANRPDPNTPMEETVRAMT [V4F] | 2.3
YVDIVFANRPDPNTPMEETVRAMT [V4I] | 1.83
YVDKVFANRPDPNTPMEETVRAMT [V4K] | 2.31
YVDNVFANRPDPNTPMEETVRAMT [V4N] | 1.64
YVDQVFANRPDPNTPMEETVRAMT [V4Q] | 1.71
YVDDVFANRPDPNTPMEETVRAMT [V4D] | 2.26
YVDEVFANRPDPNTPMEETVRAMT [V4E] | 2.07
YVDSVFANRPDPNTPMEETVRAMT [V4S] | 1.67
YVDHVFANRPDPNTPMEETVRAMT [V4H] | 1.39

Variant | protein stability index
YVDGVFANRPDPNTPMEETVRAMT [V4G] | 3.05
YVDTVFANRPDPNTPMEETVRAMT [V4T] | 2.12
YVDLVFANRPDPNTPMEETVRAMT [V4L] | 2.66
YVDPVFANRPDPNTPMEETVRAMT [V4P] | 1.87
YVDMVFANRPDPNTPMEETVRAMT [V4M] | 2.87
YVDCVFANRPDPNTPMEETVRAMT [V4C] | 1.51
YVDYVFANRPDPNTPMEETVRAMT [V4Y] | 1.85
YVDWVFANRPDPNTPMEETVRAMT [V4W] | 2.33
YVDVVFMNRPDPNTPMEETVRAMT [A7M] | 2.16
YVDVVFENRPDPNTPMEETVRAMT [A7E] | 2.19
YVDVVFINRPDPNTPMEETVRAMT [A7I] | 1.88
YVDVVFGNRPDPNTPMEETVRAMT [A7G] | 2.2
YVDVVFVNRPDPNTPMEETVRAMT [A7V] | 3.18
YVDVVFSNRPDPNTPMEETVRAMT [A7S] | 2.13
YVDVVFRNRPDPNTPMEETVRAMT [A7R] | 1.97
YVDVVFNNRPDPNTPMEETVRAMT [A7N] | 1.97
YVDVVFWNRPDPNTPMEETVRAMT [A7W] | 2.45
YVDVVFKNRPDPNTPMEETVRAMT [A7K] | 1.64
YVDVVFQNRPDPNTPMEETVRAMT [A7Q] | 2.15
YVDVVFPNRPDPNTPMEETVRAMT [A7P] | 2.14
YVDVVFYNRPDPNTPMEETVRAMT [A7Y] | 2.64
YVDVVFDNRPDPNTPMEETVRAMT [A7D] | 2.02
YVDVVFHNRPDPNTPMEETVRAMT [A7H] | 2.09
YVDVVFCNRPDPNTPMEETVRAMT [A7C] | 1.74

Variant | protein stability index
YVDVVFTNRPDPNTPMEETVRAMT [A7T] | 2.12
YVDVVFLNRPDPNTPMEETVRAMT [A7L] | 1.98
YVDVVFFNRPDPNTPMEETVRAMT [A7F] | 3.08
YVDVVLANRPDPNTPMEETVRAMT [F6L] | 2.15
YVDVVTANRPDPNTPMEETVRAMT [F6T] | 3.11
YVDVVMANRPDPNTPMEETVRAMT [F6M] | 2.3
YVDVVAANRPDPNTPMEETVRAMT [F6A] | 2.79
YVDVVEANRPDPNTPMEETVRAMT [F6E] | 3.63
YVDVVSANRPDPNTPMEETVRAMT [F6S] | 2.79
YVDVVGANRPDPNTPMEETVRAMT [F6G] | 3.16
YVDVVNANRPDPNTPMEETVRAMT [F6N] | 3.01
YVDVVCANRPDPNTPMEETVRAMT [F6C] | 2.18
YVDVVVANRPDPNTPMEETVRAMT [F6V] | 1.94
YVDVVPANRPDPNTPMEETVRAMT [F6P] | 2.09
YVDVVHANRPDPNTPMEETVRAMT [F6H] | 2.42
YVDVVYANRPDPNTPMEETVRAMT [F6Y] | 2.13
YVDVVKANRPDPNTPMEETVRAMT [F6K] | 2.66
YVDVVRANRPDPNTPMEETVRAMT [F6R] | 2.05
YVDVVWANRPDPNTPMEETVRAMT [F6W] | 3.77
YVDVVDANRPDPNTPMEETVRAMT [F6D] | 4.17
YVDVVQANRPDPNTPMEETVRAMT [F6Q] | 3.1
YVDVVIANRPDPNTPMEETVRAMT [F6I] | 1.99
